Consider 6 molecules from US20220153839A1 (NBE THERAPEUTICS, published 2022).

One assay concerns the target T1, Kr (human, UniProt Q01973).
T1 construct: Kringle domain of the extracellular domain; also called hFc-hROR1-Kr
Kind of assay: ELISA on directly coated hFc fusion proteins of hROR1 domains; anti-His-HRP; A405. On the procedure:
(§1) ELISA: For ELISA (FIG. 2), each well of a 96-well Costar 3690 plate (Corning, Corning, N.Y.) was coated with 100 ng anti-human IgG1 Fc in 25 μL coating buffer (0.1 M Na₂CO₃, 0.1 M NaHCO₃, pH 9.6) for 1 h at 37° C. After blocking with 150 μL 3% (w/v) BSA/TBS for 1 h at 37° C., hFc-hROR1 or hFc-mROR1 was captured following incubation at 100 ng/50 μL for 1 h at 37° C. Then 100 ng/50 μL of Fab was applied in each well at 37° C. 2 h later, 50 μL of a 1:1000 dilution of a mouse anti-His tag mAb conjugated to horse radish peroxidase (HRP) (R&D Systems, Minneapolis, Minn.) in 1% (w/v) BSA/TBS was used to detect the Fab. To determine the epitopes (FIG. 4), hFc fusion proteins containing different domains of hROR1 were coated directly, followed by incubation with Fab before detection by mouse anti-His tag mAb conjugated to HRP. Washing with PBS was repeated and colorimetric detection was performed using 2,2′-azino-bis(3-ethylbenzthiazoline)-6-sulfonic acid (Roche) as substrate according to the manufacturer's directions. The absorbance was measured at 405 nm using a SpectraMax M5 microplate reader (Molecular Devices; Sunnyvale, Calif.) and SoftMax Pro software (Molecular Devices).

The next assay addresses T2, Fr.
T2 construct: also called hFc-hROR1-Fr
The description is as above. Here is the method: as §1

Another assay concerns the target T3, Fr + Ki (human, UniProt Q01973).
T3 construct: Frizzled and Kringle domains of the extracellular domain; also called hFc-hROR1-Fr-Ki
Described as above. On the procedure:
as §1

The target of assay [1] is T4, hFc-hROR2 (extracellular domain of human ROR2 fused to the Fc domain of human IgG1) (human, UniProt Q01974 34-403).
T4 construct: extracellular domain; not shown: Fc domain of human IgG1
T4 sequence (Q01974 34-403): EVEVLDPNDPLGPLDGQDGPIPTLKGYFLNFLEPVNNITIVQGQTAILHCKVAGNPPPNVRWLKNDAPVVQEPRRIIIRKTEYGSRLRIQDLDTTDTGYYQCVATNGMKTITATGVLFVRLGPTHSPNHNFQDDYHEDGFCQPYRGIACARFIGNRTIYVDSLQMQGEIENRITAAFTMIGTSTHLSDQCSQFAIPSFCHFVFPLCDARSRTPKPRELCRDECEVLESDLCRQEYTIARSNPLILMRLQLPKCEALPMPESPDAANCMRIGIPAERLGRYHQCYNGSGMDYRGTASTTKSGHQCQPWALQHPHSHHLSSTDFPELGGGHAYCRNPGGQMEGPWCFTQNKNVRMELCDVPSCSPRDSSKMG
Kind of assay: ELISA as for hFc-hROR1; third bar series, keyed 'hFc-hROR1' a second time on the sheet, taken as hFc-hROR2 by legend paragraph 27. Here is the method:
(§2) The binding of each chimeric rabbit/human Fab to hROR1 and mROR1 fused with human IgG1 Fc (hFc-hROR1 and hFc-mROR1) was analyzed by ELISA. hFc-ROR1 or hFc-mROR1 were captured by anti-human IgG1 Fc antibody immobilized on plate and then incubated with hROR1 specific Fabs comprising a His-tag via detection with mouse anti-His tag.
as §1
(In general: ELISA stands for enzyme-linked immunosorbent assay.)

Another assay deals with T5, Ig (human, UniProt Q01973).
T5 construct: Ig domain of the extracellular domain; also called hFc-hROR1-Ig
T5 sequence (Q01973 42-147 limits assumed): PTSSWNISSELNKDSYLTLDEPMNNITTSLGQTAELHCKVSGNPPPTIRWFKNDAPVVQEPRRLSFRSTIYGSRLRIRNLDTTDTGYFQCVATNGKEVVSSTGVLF
Briefly: ELISA on directly coated hFc fusion proteins of hROR1 domains; anti-His-HRP; A405. Here is the method: as §1

The next assay has as its target T6, hROR2 (human, UniProt Q01974).
T6 construct: full length, on the cell surface; also called 63-12 / hROR2; ROR2 on T47D cells
Kind of assay: flow cytometry on 63-12 / hROR2 cells; anti-His Alexa Fluor 488. Here is the method:
Flow cytometry: Cells were stained using standard flow cytometry methodology. Briefly, for purified anti-ROR1 Fab (FIG. 3), 0.1-1×10⁶ cells were stained with 1000 ng/100 μL of Fab on ice for 1 h. After washing twice with ice-cold flow cytometry buffer (PBS containing 1% (v/v) BSA, 0.1% sodium azide and 1 mM EDTA), the cells were incubated with a 1:1000 dilution of a mouse anti-His tag mAb conjugated to Alexa Fluor 488 (Qiagen) in 100 μL flow cytometry buffer on ice for 30 min. For purified anti-ROR1 IgG1 (FIG. 8), 0.1-1×10⁶ cells were blocked by 4% goat serum for 15 min at room temperature and then incubated with 100 ng/100 μL of IgG on ice for 1 h. After washing twice with ice-cold flow cytometry buffer, cells were stained with a 1:500 dilution of goat anti-human IgG, Fcγ pAbs conjugated to APC (Jackson ImmunoResearch) in 100 μL flow cytometry buffer on ice for 30 min. For commercial goat anti human ROR1 polyclonal antibody (FIG. 8), 0.1-1×10⁶ cells were stained with 200 ng/100 μL of Ab on ice for 1 h. […] Finally, 4′,6-diamidino-2-phenylindole (DAPI) was added to a final concentration of 100 ng/mL to exclude dead cells from the analysis. Cells were analyzed using a FACSCalibur instrument (BD Biosciences) and FlowJo analytical software (Tree Star, Ashland, Oreg.).
On the technique in general: A flow cytometer gives signals particle by particle.

The target in assay [2] is T7, hFc-hROR1 (extracellular domain of human ROR1 fused to the Fc domain of human IgG1) (human, UniProt Q01973 30-406).
T7 construct: extracellular domain; also called hFc-ROR1; not shown: Fc domain of human IgG1
T7 sequence (Q01973 30-406): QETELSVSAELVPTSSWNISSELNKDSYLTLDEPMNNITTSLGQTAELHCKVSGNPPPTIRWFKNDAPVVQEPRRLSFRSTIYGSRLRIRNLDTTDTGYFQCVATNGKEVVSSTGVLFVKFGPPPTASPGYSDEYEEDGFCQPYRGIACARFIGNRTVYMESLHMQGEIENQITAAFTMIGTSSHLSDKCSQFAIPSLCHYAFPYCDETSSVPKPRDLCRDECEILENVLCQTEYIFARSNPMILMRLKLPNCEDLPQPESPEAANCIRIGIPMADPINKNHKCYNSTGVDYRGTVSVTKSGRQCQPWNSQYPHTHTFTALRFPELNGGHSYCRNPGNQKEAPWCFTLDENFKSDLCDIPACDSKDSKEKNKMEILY
Briefly: SPR (Biacore X100); hFc-hROR1 captured by anti-human Fcγ antibody on CM5; Fab as analyte; 1:1 Langmuir fit. Here is the method: (A) Shown are Biacore X100 sensorgrams obtained for the binding of each Fab to hFc-hROR1 captured by anti-human Fcγ antibody immobilized on CM5 chip after instantaneous background depletion. Fabs were injected at five different concentrations with the highest concentration indicated in table (B), one of the five concentrations was tested in duplicates. The equilibrium dissociation constant (Kd) was calculated from koff/kₒₙ (kₒₙ, association rate constant; koff, dissociation rate constant).
Surface plasmon resonance: Surface plasmon resonance for the measurement of the affinities of all Fabs to hFc-hROR1 and for epitope mapping studies were performed on a Biacore X100 instrument using Biacore reagents and software (GE Healthcare, Piscataway, N.J.). Anti-Human IgG (Fc) antibody was immobilized on a CM5 sensor chip following the instruction of Human Antibody Capture Kit (GE Healthcare, Piscataway, N.J.). The sensor chip included an empty flow cell for instantaneous background depletion. All binding assays used 1×HBS-EP+ running buffer (10 mM HEPES, 150 mM NaCl, 3 mM EDTA (pH 7.4), and 0.05% (v/v) Surfactant P20) and a flow rate of […]. […] The sensor chip was regenerated with […] from the Human Antibody Capture Kit without any loss of binding capacity. Calculation of association (kₒₙ) and dissociation (koff) rate constants was based on a 1:1 Langmuir binding model. The equilibrium dissociation constant (Kd) was calculated from koff/kₒₙ. For epitope mapping studies, each Fab was prepared at 500 nM alone in 1×HBS-EP+ running buffer and then injected in order as indicated in FIG. 5.
For orientation: Surface plasmon resonance follows binding to a sensor surface in real time, without labels.

In assay [3] the target is T8, hFc-mROR1 (extracellular domain of mouse ROR1 fused to the Fc domain of human IgG1) (human; mouse, UniProt Q9Z139 30-406).
T8 construct: extracellular domain; not shown: Fc domain of human IgG1
T8 sequence (Q9Z139 30-406): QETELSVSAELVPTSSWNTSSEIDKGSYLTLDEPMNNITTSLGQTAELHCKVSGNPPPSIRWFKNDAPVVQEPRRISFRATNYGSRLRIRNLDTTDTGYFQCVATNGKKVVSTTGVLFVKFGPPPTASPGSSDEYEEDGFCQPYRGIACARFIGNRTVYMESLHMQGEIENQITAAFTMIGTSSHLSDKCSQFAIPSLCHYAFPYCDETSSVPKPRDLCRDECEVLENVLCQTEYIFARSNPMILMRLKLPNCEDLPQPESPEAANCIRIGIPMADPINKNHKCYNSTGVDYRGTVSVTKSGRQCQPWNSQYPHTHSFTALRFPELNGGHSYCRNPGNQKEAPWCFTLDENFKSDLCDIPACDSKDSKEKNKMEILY
Briefly: ELISA; hFc fusion captured by coated anti-human IgG1 Fc; anti-His-HRP; A405. On the procedure:
as §2, §1

T3 sequence (Q01973 165-391 limits assumed): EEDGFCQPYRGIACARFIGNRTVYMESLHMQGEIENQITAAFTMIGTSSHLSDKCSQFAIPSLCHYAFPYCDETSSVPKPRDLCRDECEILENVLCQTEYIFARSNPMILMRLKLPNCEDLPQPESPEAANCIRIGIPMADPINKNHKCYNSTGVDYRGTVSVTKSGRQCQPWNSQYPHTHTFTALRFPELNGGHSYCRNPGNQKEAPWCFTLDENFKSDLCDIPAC
T1 sequence (Q01973 312-391 limits assumed): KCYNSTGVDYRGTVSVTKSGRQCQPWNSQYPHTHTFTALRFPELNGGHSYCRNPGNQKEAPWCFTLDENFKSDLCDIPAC
T2 sequence (chain, as listed by the source limits assumed): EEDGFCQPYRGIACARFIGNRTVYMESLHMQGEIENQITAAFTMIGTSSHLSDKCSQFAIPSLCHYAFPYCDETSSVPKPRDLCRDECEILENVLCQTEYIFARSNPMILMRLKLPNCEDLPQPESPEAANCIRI
T6 sequence (Q01974 34-943 limits assumed): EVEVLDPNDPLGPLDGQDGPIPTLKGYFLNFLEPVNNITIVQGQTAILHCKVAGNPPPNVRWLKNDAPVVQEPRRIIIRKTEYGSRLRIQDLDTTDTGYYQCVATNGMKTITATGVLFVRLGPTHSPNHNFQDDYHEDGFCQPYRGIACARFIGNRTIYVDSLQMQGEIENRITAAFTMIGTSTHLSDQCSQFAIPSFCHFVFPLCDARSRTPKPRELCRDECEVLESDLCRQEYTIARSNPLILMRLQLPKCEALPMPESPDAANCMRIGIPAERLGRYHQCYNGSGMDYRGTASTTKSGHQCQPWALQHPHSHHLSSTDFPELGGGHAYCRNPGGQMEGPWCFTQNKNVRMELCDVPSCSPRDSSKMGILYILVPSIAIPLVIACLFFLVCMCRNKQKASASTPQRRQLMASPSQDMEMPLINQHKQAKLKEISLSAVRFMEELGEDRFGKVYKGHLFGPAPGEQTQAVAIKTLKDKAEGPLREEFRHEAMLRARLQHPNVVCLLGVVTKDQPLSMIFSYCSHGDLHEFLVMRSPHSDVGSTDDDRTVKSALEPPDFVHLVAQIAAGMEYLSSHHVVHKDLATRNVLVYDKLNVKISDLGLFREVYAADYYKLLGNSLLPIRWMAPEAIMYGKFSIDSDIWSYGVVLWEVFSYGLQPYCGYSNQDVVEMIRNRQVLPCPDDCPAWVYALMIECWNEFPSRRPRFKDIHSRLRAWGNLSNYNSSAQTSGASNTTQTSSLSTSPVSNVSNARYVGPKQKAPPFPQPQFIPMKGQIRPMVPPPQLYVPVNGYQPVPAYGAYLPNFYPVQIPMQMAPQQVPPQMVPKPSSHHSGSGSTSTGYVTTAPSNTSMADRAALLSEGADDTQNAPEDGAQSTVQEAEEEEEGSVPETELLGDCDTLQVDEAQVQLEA

B1: ERR1-TOP40 chimeric rabbit/human Fab (Fab, V domains shown)
VH: QEQLEESGGRLVTPGTPLTLTCTASGFSLSNYYMSWVRQAPGKGLEYIGIISSSGSTYYASWAKGRFTISKTSSTTVDLKITSPTTEDTATYFCARLYVSDSTANLWGPGTLVTVSS
VL: DIVLTQTPSSTSAAVGGTVTIKCQASQSIDSYLAWYQQKPGQPPKLLIYGASNLASGVPSRFSGSRSGTEYILTISGVQREDAATYYCLGGYPNYFHRTAFGGGTKLEIK
notes: Chimeric rabbit/human Fab with His tag, expressed in E. coli (pET11a); kappa light chain
On to B1, for which the binding result with Kr was “no binding”; with Fr, “no binding”; in the assay with Fr + Ki, “no binding”; in assay [1], “no binding (tested: 100 ng/50 µL)”.

B2: ERR1-324 chimeric rabbit/human Fab (Fab, V domains shown)
VH: QSLEESGGGLVQPGESLTLTCTVSGFSLSRNGMTWVRQAPGKGLEWIGIITSSGDKYYATWAKGRFTISKTSSTTVDLKMTSLTTEDTATYFCARGTVSSDIWGPGTLVTISS
VL: ELVLTQTPSPVSAAVGGTVTINCQASQSVYGNNELAWYQQKPGQPPKLLIYRASILTSGVPSRFKGSGSGTQFTLTISNVQREDAATYYCLGGYVSQSYRAAFGGGTELEIL
notes: as for B1
Consider B2, for which the binding result was “no binding” with Kr, “no binding” with Fr, “no binding” with Fr + Ki and “no binding (tested: 100 ng/50 µL)” in assay [1].

B3: ERR1-306 chimeric rabbit/human Fab (Fab, V domains shown)
VH: QEQLKESGGGLVQPGGSLKLSCKASGFDLSNYGVSWVRQAPGKGLEWIGYIDPTFDYTYYASWVNGRFSISRENTQNTVSLQINSLTPADTATYFCARWVYGVDDYGDGNWLDLWGQGTLVTISS
VL: QFVLTQSPSVSAALGASAKLTCTLSSAHKTYTIDWYQQQQGEAPRYLMELKSDGSYTKGTGVPDRFSGSSSGADRYLIIPSVQADDEADYYCGTDYSGGYVFGGGTQLTVTG
notes: Chimeric rabbit/human Fab with His tag, expressed in E. coli (pET11a); lambda light chain
Turning to B3, the binding result is on record as “no binding” in the assay with Kr; “no binding” with Ig; “no binding” with Fr; “no binding” in the assay with Fr + Ki; “no binding (tested: 100 ng/50 µL)” in assay [1]; “no binding (tested: 1000 ng/100 µL)” in the assay with hROR2.

B4: XBR1-402 chimeric rabbit/human Fab (Fab, V domains shown)
VH: QEQQKESGGGLFKPTDTLTLTCTASGFDISSYYMSWVRQAPGNGLEWIGAIGISGNAYYASWAKSRSTITRNTNLNTVTLKMTSLTAADTATYFCARDHPTYGMDLWGPGTLVTVSS
VL: SYELTQLPSVSVSLGQTARITCEGNNIGSKAVHWYQQKPGLAPGLLIYDDDERPSGVPDRFSGSNSGDTATLTISGAQAGDEADYYCQVWDSSAYVFGGGTQLTVTG
notes: Chimeric rabbit/human Fab with His tag, expressed in E. coli (pC3C-His); lambda light chain
For orientation: Kd means the constant that tells how readily two partners part at equilibrium. Low values mean a tighter complex, high ones a looser complex. As usually defined, the koff is the first-order rate constant of dissociation. Read a low koff as slow dissociation. The kon is a measure of how fast the partners come together. For the molecule B4, in assay [2], the affinity, expressed as Kd, was 5.81 nM. Besides, in assay [2], the koff was determined as 0.00643 s⁻¹. Also, the kon in assay [2] was determined as 1.11e+06 M⁻¹ s⁻¹. Further, the binding result with Kr is “no binding”; in the assay with Ig, “no binding”; with Fr + Ki, “no binding”; in assay [1], “no binding (tested: 100 ng/50 µL)”; in assay [3], “no binding (tested: 100 ng/50 µL)”; with hROR2 it was “no binding (tested: 1000 ng/100 µL)”.

B5: ERR1-TOP15 chimeric rabbit/human Fab (Fab, V domains shown)
VH: QEQLVESGGRLVTPGGSLTLTCAASGFSPSSYWMSWVRQAPGKGLEWIGAIYVDSGSAYYASWAKSRFTISKTSSTTVDLKMTSLTTEDTAIYFCARDGWGSDVWGPGTLVTISS
VL: SYELTQLPSVSVSLGQTARITCGGNSIGSKAVHWYQQKPGLAPGLLIYDDDERPSGVPDRFSGSNSGDTATLTISGAQAGDEADYYCQLWDSSAGAYVFGGGTQLTVTG
notes: as for B3
In assay [2], B5 returned a Kd of 139 nM. This molecule also displayed an off-rate constant (koff) in assay [2] of 0.0654 s⁻¹. The molecule also had a kon in assay [2] of 469000 M⁻¹ s⁻¹. For the same molecule, the binding result is given as “no binding” with Kr; “no binding” with Ig; “no binding” with Fr; “no binding” with Fr + Ki; “no binding (tested: 100 ng/50 µL)” in assay [1]; “no binding (tested: 100 ng/50 µL)” in assay [3]. The binding result in the assay with hROR2 is on record as “no binding (tested: 1000 ng/100 µL)”.

B6: ERR1-TOP54 chimeric rabbit/human Fab (Fab, V domains shown)
VH: QSLEESGGRLVTPGTPLTLTCTASGFSLSDYYMSWVRQAPGEGLEWIGTIYGGSGNTWYATWAKGRFTISKTSTTVDLKITSPTTEDTATYFCARDFGLSTGGLWGPGTLVTISS
VL: SYELTQLPSVSVSLGQTARITCGGNSIGSKAVNWYQQKPGLAPGLLIYDDDERPSGVPDRFSGSNSGDTATLTISGAQAGDEADYYCQLWDSSARAFVFGGGTQLTVTG
notes: as for B3
In assay [2], B6 had a Kd of 145 nM. The molecule further displayed a koff in assay [2] of 0.0688 s⁻¹. For the same molecule, the kon in assay [2] came to 475000 M⁻¹ s⁻¹. The binding result is “no binding” with Kr; “no binding” with Fr; “no binding” in the assay with Fr + Ki; “no binding (tested: 100 ng/50 µL)” in assay [1]; “no binding (tested: 100 ng/50 µL)” in assay [3]; “no binding (tested: 1000 ng/100 µL)” with hROR2.
